Measurements published in the domain aggregation screens of Martell et al. (2025).

Assay: soluble fraction after stress (log2 fold change); higher = more stays soluble; pooled small domains, quantitative proteomics
Settings: stress: 75 degC
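Note: 20 min heating vs room temperature control held 20 min.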

Point of comparison: “HMQINLKQSSDEELVKIITVQVHHYEPHTVKAAEAEIERRGIDKMRMAHLVKKVAQENTAVQEIQD”, “soluble fraction (log2)” value 0.297. Against it:
- HMQAGILTDTAAKNARIKKIDTERLEAELDQKRIVIVTGFQGVDRNQNITTLGRGGSDTSAVALAAAVSIT — within 0.2 log units, 0.171
- HMQAKDVEIPNFVGKTLAEANADNKDNFNFVVESKYDASKELGVILEQEPAADSKLVKSGSQITLKV — higher, ≥ 1.04
- HMQALDNNDALEEIIKKVITENPSQVTEFRNGKDSLMNFLVGKVMAASGGKANPKTLPETIEKIIK — within 0.2 log units, 0.277
- HMQAMDYEGFKKEILKMSDIDLSLYKEKQMKRRIDSLIRKNGYEHYEDYVQALKQDSGLYNEFINYLTI — higher, 0.571
- HMQANLPFSELLADVDRGLISDVTIKGDQVSGHYTDGRTFNTFIPPEADLVRRLTEKNVRIAAVPD — lower, -0.113
- HMQAPAFDYSKVQEGVTVNHKIFGDGTVSWIDKARKYIRVQFSVGEKMFTMETAFVQGFLSL — lower, -1.19
- HMQAPVDPIVLGKMGSSYGIRGWLRVFSSTEDAESIFDYQPWFIQKAGQWQQVQLESWKHHNQDMIIKLN — within 0.2 log units, 0.2
- HMQARLPFSFAKRHGVILLAATGEGQSDVIYKSGFDIGALAEVRRFVAGEIALKEVDGPSFDRQLTLTYQN — lower, -2
- HMQARSQQTIQTLFKAAAQILDKEGEAGLSTNKVAAAAGFSIGTLYQYFPSKEVLIQAMAAR — within 0.2 log units, 0.219
- HMQASISVDEAKSIALNYAKFTADQVVYTKSELDYDDGRAEYEIEFYAGGKEYSFTIDAVSGTVLEMEI — lower, -2.26
- HMQATDEEIENFTSSAITAYKLTKEEGYIISMRDMKPIMEIVKTEYPMANGKVVSKVMNNYING — lower, 0.0264
- HMQDELSSSVIEEAVVVLLLRAANIDGKKDEQEIEAIKRLIIQQFNYDEEKADILITSASEK — lower, 0.0178
- HMQDGTILPGQKTAIRSLATSGGYDSQDLDTYLATTYGKSIDGLTRTEGADVIKAFQAGTVAK — within 0.2 log units, 0.436
- HMQDLEIKINLGMTYYEVREAIGSPDIIDKINQYGRDFQMWTYYIDDKTKRYYFEDHLLTKI — lower, -2.84
- HMQDLPPIHLSRGMTDYTLVRSRRRTLSMELKRDGTVVVHAPLRLGVEKIDAFVAAHEAWLARARTRQAER — lower, -2.59
- HMQDNPELVARIEKAAARGTSSMSDWERSFMGSLLDSAKKWGRLTAKQHEVFQRIEKKTDPAHQAAVS — within 0.2 log units, 0.111
- HMQDPRITRTRGLILQAFDALLVEKGFHALSVQAIAGRAGINRATFYAHFADKYALLDTSIQE — within 0.2 log units, 0.227
- HMQDREKNIAEGRDIIEHEFMRLGISLSRYDLDGLASKLNVKAGDDVLAGVGAGDIRVSQIISQLG — lower, -0.0551
- HMQDTVKNVFGAFTIFTDKPFAIGDTINVNGLEGTVVDVGMRSTQILGYDRRITSYPNYKITDSSIVNISS — lower, -0.0554
- HMQDVVFTVDKDQTGAEIGDMLYEKGIISSPTTFRLALRLTGSMDKLQQGYYQIPQNASLRQVIALLQKG — lower, -0.35
- HMQDYYTQSDFARYLEDKGIHFPQNKIAVYRKRGKFPKEDLVVAGTPYWSKYTVESFAKHLLEQQN — within 0.2 log units, 0.254
- HMQEAATSLNAKILAKLRENNGTLAVSDKSDPALISSLFGVSKGNFKKAIGALYKNGQIVIHADRIEL — lower, -0.813
- HMQEDQKTSIFDIEGVEKGVASVLSSIKVEIVSDLLEADMDDILKSGKISEDDLDGVYEAVQNFVER — within 0.2 log units, 0.41
- HMQELNDQQRLAILNEWNNRATNPPSLLELVRVAFPDAEGADGRSWHGKKVKEFLSTRQIKARAS — lower, 0.0119
- HMQENFYMILESEERRVLDVLVADQPESVATFLKLVSPFPNYKIILEHINEKALDFYEETVI — lower, -0.35
- HMQESTILPAQKSAISSLATSAGFSSENLKRYLLQNYGVDLKDLTRSQGAEVIKAFQSGNVSKP — within 0.2 log units, 0.281
- HMQETPAMLAMKELPTEDEQRIYMMLQEDYDSVLLVKTIRNAFSQNPQLTRQQLLPIILTWLMT — lower, -1.33
- HMQGATVYIKSDDIGKTTNEQGSFNFDKLKKNRYTLEISFIGYETKNLQAYTDRENIVQLNRKS — lower, -0.307
- HMQGEVPYSQFLTEVDRGDVQSVVIEGNNISGFYKNSSTAFTVVAPDDPKLVERLMEQGVEVKARPV — within 0.2 log units, 0.112
- HMQGEVVTNRSVIDMSRAGLSADIIRAKILRSDTNFDVTAKALIELKESGVPDDIIALMLERADS — lower, 0.00604
- HMQGIPVTVTAERANLRSGPGTSFDKLGQVVQGDVLTLLEVQNDWYKVKTAEGKTAFVAAYLVNSP — lower, -0.269
- HMQGQADFTQGIANFTQYPVGSRITVFTLEGRRVAVVEIGKDGTAQLDMRNKPAGVYIVNTGKQSFKWLK — lower, -2.65
- HMQGRIYLNPDLAEKLRAQYAAYPHWSYLLHTENLGALVRKTESLGPMPSYSTILRYMHANDMRKRNKP — lower, -1.78
- HMQGVNLTETEKNFIAQVLSPLLKQGQSLYQIRTNHPEIKLSVKTLYTYIESGIFKESGINNFSLRRQ — lower, -0.122
- HMQILNVFSKHGIKPISPQIGDKFDPQLHEAMFEAPVPGTKAGDIIEVSSEGFMLYDRLLRPAHVGVSSN — lower, -0.0306
- HMQILPAFLPENPELRARLANHSLEELTEILKQYKTLHNSTDVDTVKRAIRAIEIEEYYAVHPV — lower, -0.731
- HMQISDDSELIKIVDNILANSQKQIDDYHNGKTNLFGFFVGQVMKETKGKANPVKVNEILKDKL — lower, -0.00828
